Reference: patent US20110070243A1 (published 2011)
One block for each binder: values may come before it.

Legend:
cyno CD79b (TAHO40) [1] = target: T1, cyno CD79b (TAHO40) (cynomolgus monkey); experiment: Scatchard analysis on BJAB-cyno CD79b cells
T1 construct: Target on BJAB-cyno CD79b cells (BJAB transfected with cyno CD79b) and on cynomolgus B cells; also called cynomolgus CD79b; PRO283627
T1 chain: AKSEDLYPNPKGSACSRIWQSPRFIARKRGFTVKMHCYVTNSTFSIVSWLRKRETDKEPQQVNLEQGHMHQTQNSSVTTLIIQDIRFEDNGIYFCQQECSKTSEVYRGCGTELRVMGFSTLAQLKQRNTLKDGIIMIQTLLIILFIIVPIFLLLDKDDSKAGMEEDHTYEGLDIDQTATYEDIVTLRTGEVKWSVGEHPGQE

[2] = target: T2, human CD79b (TAHO5) 21mer peptide (human); experiment: peptide competition: antibody pre-incubated with the human 21mer peptide, then FACS staining of cells
T2 peptide: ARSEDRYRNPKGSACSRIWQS

rhesus CD79b = target: T3, rhesus CD79b (rhesus monkey, UniProt H9ZFT8 30-231); experiment: staining of rhesus monkey B cells; method not detailed
T3 construct: whole, on cells; also called rhesus monkey CD79b
T3 sequence: T1 chain

cyno CD79b (TAHO40) [3] = target: T1, cyno CD79b (TAHO40); experiment: staining of cynomolgus monkey B cells; method not detailed
[4] = target: T4, cyno CD79b (TAHO40) 21mer peptide (cynomolgus monkey); experiment: peptide competition: antibody pre-incubated with the cyno peptide, then FACS staining of BJAB cells
T4 construct: also called cyno CD79b (TAHO40) 20 mer peptides
T4 peptide: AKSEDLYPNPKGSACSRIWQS

human CD79b (TAHO5) = target: T5, human CD79b (TAHO5) (human, UniProt P40259 29-229); experiment: Scatchard analysis on BJAB-cyno CD79b cells (which also express human CD79b)
T5 construct: also called PRO36249; Igbeta
T5 sequence: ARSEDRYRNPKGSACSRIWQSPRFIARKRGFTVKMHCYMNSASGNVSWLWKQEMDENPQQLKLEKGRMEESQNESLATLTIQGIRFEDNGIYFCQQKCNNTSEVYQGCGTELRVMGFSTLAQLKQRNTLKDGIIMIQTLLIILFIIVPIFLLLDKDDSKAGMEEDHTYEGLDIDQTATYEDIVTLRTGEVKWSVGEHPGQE

Kd (cyno CD79b (TAHO40) [1]): 1000 pM
B1: anti-cyno-CD79b-10D10 (antibody, V domains shown)
VH: EVQLQESGPGLVKPSQSLSLTCTVTGYSITSDYAWNWIRQFPGNKLEWMGNIWYSGSTTYNPSLKSRISITRDTSKNQFFLQLNSVTSEDTATYYCSRMDFWGQGTTLTVSS
VL: DIVLTQSPPSLAVSLGQRATISCRASESVDSYGKTFMHWHQQKPGQPPKLLIYRVSNLESGIPARFSGSGSRTDFTLTINPVEADDVATYYCQQSNEDPFTFGGGTKLEIKR
notes: Murine hybridoma monoclonal antibody; also called 10D10.3; ATCC PTA-7715
binding result [2]: no binding (tested: antibody:peptide 1:10)

binding result (rhesus CD79b): no binding
binding result (cyno CD79b (TAHO40) [3]): no binding
B2: anti-human-CD79b-2F2 (antibody, V domains shown)
VH: QVQLQQPGAELVRPGASVKLSCKASGYTFTSYWMNWVKQRPGQGLEWIGMIDPSDSETHYNHIFKDKATLTVDKSSSTAYLQLSSLTSEDSAVYYCARNLYLWGQGTSVTVSL
VL: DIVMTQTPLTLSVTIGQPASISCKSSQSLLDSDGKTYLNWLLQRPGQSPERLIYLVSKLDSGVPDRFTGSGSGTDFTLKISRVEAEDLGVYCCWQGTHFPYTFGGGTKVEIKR
notes: Murine hybridoma monoclonal antibody; also called 2F2.20.1; anti-human CD79b (TAHO5) (2F2)
binding result [4]: no binding (tested: antibody:peptide 1:10)

binding result (rhesus CD79b): no binding
binding result (cyno CD79b (TAHO40) [3]): no binding
Kd (human CD79b (TAHO5)): 500 pM
B3: anti-human CD79b (TAHO5) antibody SN8 (antibody, V domains shown)
VL: DIVLTQSPASLAVSLGQRATISCKASQSVDYDGDSFLNWYQQKPGQPPKLFIYAASNLESGIPARFSGSGSGTDFTLNIHPVEEEDAATYYCQQSNEDPLTFGAGTELELKR
VH: EVQLQQSGAELMKPGASVKISCKATGYTFSSYWIEWVKQRPGHGLEWIGEILPGGGDTNYNEIFKGKATFTADTSSNTAYMQLSSLTSEDSAVYYCTRRVPVYFDYWGQGTSVTVSS
notes: Murine monoclonal antibody, commercial (Biomeda, BD, Ancell) or from the Roswell Park hybridoma; also called anti-human CD79b (SN8)
binding result [4]: no binding (tested: antibody:peptide 1:10)
